Laboratory results from publication PMC10267678 (2023).

How the values were obtained:
[1] = target: T1, full-length human TNC protein (human, UniProt P24821 23-2201); test: BLI
[2] = target: T1, full-length human TNC protein; test: BLI; remark: listed apart in the source

T1 sequence (P24821 23-2201): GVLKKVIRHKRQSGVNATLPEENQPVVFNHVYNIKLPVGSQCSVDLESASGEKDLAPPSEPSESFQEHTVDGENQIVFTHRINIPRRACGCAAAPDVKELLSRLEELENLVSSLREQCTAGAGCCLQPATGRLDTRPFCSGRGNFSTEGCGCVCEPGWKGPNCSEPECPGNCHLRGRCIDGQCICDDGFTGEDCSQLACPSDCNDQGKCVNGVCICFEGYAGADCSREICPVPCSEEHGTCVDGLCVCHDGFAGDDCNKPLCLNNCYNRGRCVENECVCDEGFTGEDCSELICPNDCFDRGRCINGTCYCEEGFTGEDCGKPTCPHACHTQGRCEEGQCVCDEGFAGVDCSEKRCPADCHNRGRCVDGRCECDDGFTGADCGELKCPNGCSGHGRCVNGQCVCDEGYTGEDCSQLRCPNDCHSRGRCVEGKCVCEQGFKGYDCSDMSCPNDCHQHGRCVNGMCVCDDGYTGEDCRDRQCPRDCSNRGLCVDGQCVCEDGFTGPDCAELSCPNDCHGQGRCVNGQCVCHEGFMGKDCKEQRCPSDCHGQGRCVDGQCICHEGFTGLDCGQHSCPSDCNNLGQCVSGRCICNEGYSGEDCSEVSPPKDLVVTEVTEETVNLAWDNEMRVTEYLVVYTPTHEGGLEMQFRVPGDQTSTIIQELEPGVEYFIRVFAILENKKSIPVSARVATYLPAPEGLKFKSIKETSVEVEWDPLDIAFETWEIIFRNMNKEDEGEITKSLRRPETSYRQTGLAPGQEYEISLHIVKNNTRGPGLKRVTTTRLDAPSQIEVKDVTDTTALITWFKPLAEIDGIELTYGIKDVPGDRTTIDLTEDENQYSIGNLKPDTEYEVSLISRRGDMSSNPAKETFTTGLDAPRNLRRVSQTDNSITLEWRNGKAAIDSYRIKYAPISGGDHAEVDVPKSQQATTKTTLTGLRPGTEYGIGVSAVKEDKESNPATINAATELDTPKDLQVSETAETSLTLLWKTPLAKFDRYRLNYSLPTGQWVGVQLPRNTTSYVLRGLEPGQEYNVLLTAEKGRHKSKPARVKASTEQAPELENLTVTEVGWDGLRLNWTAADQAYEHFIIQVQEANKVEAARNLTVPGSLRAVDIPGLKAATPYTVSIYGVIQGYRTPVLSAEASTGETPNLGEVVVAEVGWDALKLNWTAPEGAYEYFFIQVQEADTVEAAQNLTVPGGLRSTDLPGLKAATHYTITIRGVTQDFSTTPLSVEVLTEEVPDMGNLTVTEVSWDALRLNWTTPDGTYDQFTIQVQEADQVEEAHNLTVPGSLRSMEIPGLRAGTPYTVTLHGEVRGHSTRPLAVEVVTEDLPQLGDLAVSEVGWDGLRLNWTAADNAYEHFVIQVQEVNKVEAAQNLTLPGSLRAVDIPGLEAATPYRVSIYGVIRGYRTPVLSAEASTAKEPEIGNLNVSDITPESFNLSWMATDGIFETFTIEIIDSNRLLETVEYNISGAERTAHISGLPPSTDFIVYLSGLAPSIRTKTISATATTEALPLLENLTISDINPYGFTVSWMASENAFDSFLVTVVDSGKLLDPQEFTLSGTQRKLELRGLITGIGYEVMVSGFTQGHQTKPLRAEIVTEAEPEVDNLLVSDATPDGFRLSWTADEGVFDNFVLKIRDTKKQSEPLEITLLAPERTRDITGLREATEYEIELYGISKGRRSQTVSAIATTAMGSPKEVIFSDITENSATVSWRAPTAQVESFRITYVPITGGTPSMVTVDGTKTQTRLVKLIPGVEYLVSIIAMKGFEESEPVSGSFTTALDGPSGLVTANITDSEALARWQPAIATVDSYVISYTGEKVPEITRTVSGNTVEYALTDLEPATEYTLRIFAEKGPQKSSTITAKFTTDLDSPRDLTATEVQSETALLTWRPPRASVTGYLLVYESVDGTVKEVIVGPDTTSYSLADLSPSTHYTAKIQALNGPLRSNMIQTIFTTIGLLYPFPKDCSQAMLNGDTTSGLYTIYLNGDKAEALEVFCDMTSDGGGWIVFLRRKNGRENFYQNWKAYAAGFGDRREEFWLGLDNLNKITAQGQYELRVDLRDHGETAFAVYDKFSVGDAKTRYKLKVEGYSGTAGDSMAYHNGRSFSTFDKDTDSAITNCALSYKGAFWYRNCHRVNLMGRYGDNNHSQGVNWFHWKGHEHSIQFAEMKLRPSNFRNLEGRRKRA

| Kd [1] [pM] | koff [2] [s⁻¹] | Binder |
| --- | --- | --- |
| 1.47 | 2.35e-07 | NJT3 (VHH, biotin (BLI, IHC) or Alexa-647 (two-photon imaging) added at the C-terminus by sortase-mediated tagging) VHH: QVQLVETGGGLAQAGGSLRLSCAASGRTLSGYAMGWFRQAPGKEREFVAAISWSGRNTYYDYTVQGRFTISKDNAKNTVNLQMNSLKPEDTAVYYCAVSRSLDEFGDGYEMDYWGDGTQVTVSS |
| < 1 | < 1e-07 | NJT4 (VHH, biotin (BLI, IHC) or Alexa-647 (two-photon imaging) added at the C-terminus by sortase-mediated tagging) VHH: QVQLVESGGGLVQPGGSLRLSCAASGFTFSSYTMRWYRQAPGKERELVAFIGVAGGSTKYADSVKGRFTISRDNTKNTVYLQMNTLKPEDTAVYYCYAPLTPYWGQGTQVTVSS |
| < 1 | < 1e-07 | NJT6 (VHH, biotin (BLI, IHC) or Alexa-647 (two-photon imaging) added at the C-terminus by sortase-mediated tagging) VHH: QVQLVETGGDLVQPGGSLRLSCAASGLTLDYYAIGWVRQAPGKEREGVSCITPQDGNTYYDDSVMGRFTILRDNAKNMVYLQMNNLKPEDTAVYFCAAAGALTLDPSEYEYWGQGTQVTVSS |
